Source: article PMC3399532 (Prion, 2012)

Molecular target: truncated MoPrP(89–230) (mouse, UniProt P04925 89-230)
Experiment: ELISA

B1: mouse (Mo) Dpl (26–155) (domain or fragment)
chain: ARGIKHRFKWNRKVLPSSGGQITEARVAENRPGAFIKQGRKLDIDFGAEGNRYYAANYWQFPDGIYYEGCSEANVTKEMLVTSCVNATQAANQAEFSREKQDSKLHQRVLWRLIKEICSAKHCDFWLERG
binding result: binds
